Assay results taken from IntAct's records for PubMed 16418290.

B1: Caspase recruitment domain-containing protein 6 (Homo sapiens), Q9BX69 (parent)
chain: MATESTPSEIIERERKKLLEILQHDPDSILDTLTSRRLISEEEYETLENVTDLLKKSRKLLILVQKKGEATCQHFLKCLFSTFPQSAAICGLRHEVLKHENTVPPQSMGASSNSEDAFSPGIKQPEAPEITVFFSEKEHLDLETSEFFRDKKTSYRETALSARKNEKEYDTPEVTLSYSVEKVGCEVPATITYIKDGQRYEELDDSLYLGKEEYLGSVDTPEDAEATVEEEVYDDPEHVGYDGEEDFENSETTEFSGEEPSYEGSETSLSLEEEQEKSIEERKKVFKDVLLCLNMDRSRKVLPDFVKQFSLDRGCKWTPESPGDLAWNFLMKVQARDVTARDSILSHKVLDEDSKEDLLAGVENLEIRDIQTINPLDVLCATMLCSDSSLQRQVMSNMYQCQFALPLLLPDAENNKSILMLGAMKDIVKKQSTQFSGGPTEDTEKFLTLMKMPVISFVRLGYCSFSKSRILNTLLSPAQLKLHKIFLHQDLPLLVLPRQISDGLVEITWCFPDSDDRKENPFFQKPVALANLRGNLESFWTQFGFLMEVSSAVFFFTDCLGEKEWDLLMFLGEAAIERCYFVLSSQARESEEAQIFQRILNLKPAQLLFWERGDAGDRRKNMEGLQAALQEVMFSSCLRCVSVEDMAALARELGIQVDEDFENTQRIQVSSGENMAGTAEGEGQQRHSQLKSSSKSQALMPIQEPGTQCELSQNLQNLYGTPVFRPVLENSWLFPTRIGGNFNHVSLKASWVMGRPFGSEQRPKWFHPLPFQNAGAQGRGKSFGIQSFHPQIFYSGERFMKFSRVARGCHSNGTFGRLPRPICQHVQACPERPQMMGTLERSRAVASKIGHSYSLDSQPARAVGKPWPQQACTRVTELTEATGKLIRTSHIGKPHPQSFQPAAATQKLRPASQQGVQMKTQGGASNPALQIGSHPMCKSSQFKSDQSNPSTVKHSQPKPFHSVPSQPKSSQTKSCQSQPSQTKPSPCKSTQPKPSQPWPPQSKPSQPRPPQPKSSSTNPSQAKAHHSKAGQKRGGKH

Variants of: B1
Settings: with ripk2_human RIPK2, O43353
ripk2_human RIPK2, O43353, sequence (O43353 whole entry): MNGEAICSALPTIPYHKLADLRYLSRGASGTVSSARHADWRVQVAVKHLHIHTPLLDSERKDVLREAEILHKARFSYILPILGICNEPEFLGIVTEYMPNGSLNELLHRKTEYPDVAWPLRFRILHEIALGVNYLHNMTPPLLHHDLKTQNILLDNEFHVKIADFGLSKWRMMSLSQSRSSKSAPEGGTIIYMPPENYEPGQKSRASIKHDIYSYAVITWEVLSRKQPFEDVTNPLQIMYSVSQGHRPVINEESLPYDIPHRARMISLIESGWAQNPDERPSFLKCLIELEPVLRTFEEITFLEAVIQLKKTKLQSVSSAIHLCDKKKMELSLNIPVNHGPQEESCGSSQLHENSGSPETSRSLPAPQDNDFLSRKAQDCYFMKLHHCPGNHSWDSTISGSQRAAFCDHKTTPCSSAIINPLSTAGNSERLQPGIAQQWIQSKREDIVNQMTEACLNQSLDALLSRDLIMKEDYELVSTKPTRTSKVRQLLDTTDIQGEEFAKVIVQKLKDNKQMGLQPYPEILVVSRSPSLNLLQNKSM

Row | effect of a mutation on the interaction | Variant
1 | increasing interaction strength | L30R;D31N;L33R
